Drawing on article PMC2074667, this text covers Kd for one substance.

Assay [1] addresses high-affinity cell-surface IFN-alpha receptor of human lung carcinoma cells (human (endogenous in PC9 and other lung carcinoma cell lines)). The assay is described as follows: radioligand binding; several lung carcinoma cell lines (lines not named) in suspension, room temperature, 2 h, 0.1-4 nM [125I]IFN-a; non-specific binding measured with 100-fold excess of unlabelled IFN-a; Scatchard analysis.

Assay [2] has the same target. In words: radioligand binding; PC9 cells in suspension (200 ul of 5 x 10^6 cells/ml) incubated at room temperature for 2 h with 0.1-4 nM [125I]IFN-a; non-specific binding measured with 100-fold excess of unlabelled IFN-a; Scatchard analysis.

As to “Pure recombinant human IFN-alpha, labelled with 125I (from UniProt P01563 24-188) (ligand)”, the Kd (usually the constant that tells how readily two partners part at equilibrium) in assay [1] is 0.02 to 0.1 nM; in assay [2] it was 0.042 nM.
